# B1: Cryptic beta-glucoside bgl operon antiterminator (Escherichia coli (strain K12)), P11989 (parent)
# chain: MNMQITKILNNNVVVVIDDQQREKVVMGRGIGFQKRAGERINSSGIEKEYALSSHELNGRLSELLSHIPLEVMATCDRIISLAQERLGKLQDSIYISLTDHCQFAIKRFQQNVLLPNPLLWDIQRLYPKEFQLGEEALTIIDKRLGVQLPKDEVGFIAMHLVSAQMSGNMEDVAGVTQLMREMLQLIKFQFSLNYQEESLSYQRLVTHLKFLSWRILEHASINDSDESLQQAVKQNYPQAWQCAERIAIFIGLQYQRKISPAEIMFLAINIERVRKEH
# Variants of: B1
# Conditions: with pthp_ecoli ptsH
row,Variant,effect of a mutation on the interaction
1,H160Y,increasing interaction

# Variants of: B1
# Conditions: with pthp_ecoli ptsH
# Remark: another data set of the same source
row,Variant,effect of a mutation on the interaction
1,H208R,increasing interaction

# Variants of: B1
# Conditions: with pt1_ecoli ptsI
row,Variant,effect of a mutation on the interaction
1,H208R,increasing interaction

# Variants of: B1
# Conditions: with pt1_ecoli ptsI
# Remark: another data set of the same source
row,Variant,effect of a mutation on the interaction
1,H208R,decreasing interaction

# Variants of: B1
# Conditions: with pthp_ecoli ptsH
# Remark: another data set of the same source
row,Variant,effect of a mutation on the interaction
1,D100N,increasing interaction

# Reference: IntAct's records for PubMed 20924357
